Laboratory results taken from article PMC9643530.
“And” between values parts separate entries of the source, which are not always exact repeats. Equal entries are not always repeated. Where two headings read alike, the source gives them in different places.

How the values were obtained:
[1] = target: sNS1 from the supernatant of DENV2 PVP94/07 infected cells (dengue virus 2 (clinical strain PVP94/07)); test: cross-linking
[2] = target: sNS1 from the supernatant of DENV2 PVP94/07 infected cells (dengue virus 2 (clinical strain PVP94/07)); test: cross-linking; remark: listed apart in the source
[3] = target: recombinant secreted NS1 (sNS1) of DENV2 clinical strain PVP94/07 with C-terminal His6-tag (dengue virus 2 (clinical strain PVP94/07)); test: cryo-EM structure; recombinant sNS1 complexed with Fab 5E3, molar ratio 1:1.2, final sNS1 0.25 mg/mL
[4] = target: recombinant secreted NS1 (sNS1) of DENV2 clinical strain PVP94/07 with C-terminal His6-tag (dengue virus 2 (clinical strain PVP94/07)); test: cross-linking
[5] = target: recombinant secreted NS1 (sNS1) of DENV2 clinical strain PVP94/07 with C-terminal His6-tag (dengue virus 2 (clinical strain PVP94/07)); test: cryo-EM structure; recombinant sNS1 alone, 0.25 mg/mL; 2D and 3D classification (Relion, CryoSPARC); also imaged with 0.05% DDM
[6] = target: recombinant secreted NS1 (sNS1) of DENV2 clinical strain PVP94/07 with C-terminal His6-tag (dengue virus 2 (clinical strain PVP94/07)); test: AUC; sedimentation velocity, 72,446 x g, 20 °C, 1 mg/ml protein in NTE buffer, SEDFIT continuous c(s) distribution

Substance | stoichiometry N [1] | stoichiometry N [2] | stoichiometry N [3] | stoichiometry N [4] | stoichiometry N [5] | stoichiometry N [6]
sNS1 from the supernatant of DENV2 PVP94/07 infected cells (natural protein) | 4 and 2 | 6 | – | – | – | –
recombinant secreted NS1 (sNS1) of DENV2 clinical strain PVP94/07 with C-terminal His6-tag (natural protein) | – | – | 2 and 4 | 6 and 4 and 2 | 6 and 4 | 4 and 6
